This is an account of results in patent publication US20260125477A1.

Assay [1] concerns the target human B7-H3 on B7-H3+ cells (human) (UniProt Q5ZPR3). The experiment in a line: FACS, NCI-H520 cells (B7-H3+ tumor cells) [Continued) D]. On the technique in general: In flow cytometry, cells or beads pass a laser one at a time.
The target is the same in assay [2]. Briefly: FACS, HUVEC cells (human B7-H3-expressing).
For assay [3] the target is unchanged. Briefly: FACS, human dermal fibroblasts (B7-H3+ normal cells).
For assay [4] the target is unchanged. The experiment in a line: FACS, mature human dendritic cells derived from PBMC (B7-H3+ normal cells).
For assay [5] the target is unchanged. The experiment in a line: FACS, NCI-H520 cells (B7-H3+ tumor cells).
The target is the same in assay [6]. The experiment in a line: FACS, human prostate smooth muscle cells (B7-H3+ normal cells).
The target is the same in assay [7]. The experiment in a line: FACS, NCI-H520 cells (B7-H3+ tumor cells) [Continued) C].
The target is the same in assay [8]. Briefly: FACS, SK-OV-3 cells (B7-H3+ tumor cells).
For assay [9] the target is unchanged. Briefly: FACS, HepG2 cells (B7-H3+ tumor cells).
The target is the same in assay [10]. The experiment in a line: FACS, A549 cells (B7-H3+ tumor cells).
For assay [11] the target is unchanged. Briefly: FACS, MCF-7 cells (B7-H3+ tumor cells).

The EC50 (read off the curve) is the midpoint of the concentration-response curve. Low values mean a more potent agent, high ones a less potent agent.

human B7-H3 on B7-H3+ cells (human), sequence (Q5ZPR3 29-534): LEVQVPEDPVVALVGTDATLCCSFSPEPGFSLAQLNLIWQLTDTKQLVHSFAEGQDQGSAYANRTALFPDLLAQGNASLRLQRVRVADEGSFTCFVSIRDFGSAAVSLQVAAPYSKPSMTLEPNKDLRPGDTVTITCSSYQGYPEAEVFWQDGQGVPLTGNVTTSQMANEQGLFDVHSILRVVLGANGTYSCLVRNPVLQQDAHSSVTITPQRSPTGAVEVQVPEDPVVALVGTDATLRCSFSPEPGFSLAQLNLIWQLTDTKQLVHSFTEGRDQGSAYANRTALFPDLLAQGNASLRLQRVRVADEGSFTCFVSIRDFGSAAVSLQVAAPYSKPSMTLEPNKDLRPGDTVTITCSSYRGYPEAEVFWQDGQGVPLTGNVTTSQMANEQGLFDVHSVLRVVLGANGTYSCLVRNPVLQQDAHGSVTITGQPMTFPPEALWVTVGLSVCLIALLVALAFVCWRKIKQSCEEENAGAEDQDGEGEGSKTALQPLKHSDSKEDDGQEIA

B1: 10D7-Mut (antibody, human IgG1, kappa)
heavy: QVQLVQSGPGLVKPSETLSLTCTVSGGSISRSSYYWGWIRQPPGKGLEWIGNIFYAGSTYYNPSLKSRVTISVDTSKNQFSLKLSSVTAADTAVYYCARRITGTTGWFDPWGQGTLVTVSSASTKGPSVFPLAPSSKSTSGGTAALGCLVKDYFPEPVTVSWNSGALTSGVHTFPAVLQSSGLYSLSSVVTVPSSSLGTQTYICNVNHKPSNTKVDKRVEPKSCDKTHTCPPCPAPELVGGPSVFLLPPKPKDTLMISRTPEVTCVVVDVSHEDPEVKFNWYVDGVEVHNAKTKPPEEQYNSTLRVVSVLTVLHQDWLNGKEYKCKVSNKALPAPIEKTISKAKGQPREPQVYTLPPSREEMTKNQVSLTCLVKGFYPSDIAVEWESNGQPENNYKTTPLVLDSDGSFFLYSKLTVDKSRWQQGNVFSCSVMHEALHNHYTQKSLSLSPGK
light: DIQLTQSPSSLSASVGDRVTITCRASQGIRNDLGWYQQKPGKAPKLLIYAASTLQSGVPSRFSGSGSGTDFTLTISSLQPEDFATYYCLQDYNYPRTFGQGTKVEIKRTVAAPSVFIFPPSDEQLKSGTASVVCLLNNFYPREAKVQWKVDNALQSGNSQESVTEQDSKDSTYSLSSTLTLSKADYEKHKVYACEVTHQGLSSPVTKSFNRGEC
On to B1, for which the EC50 (read off the curve) in assay [1] was 0.03 µg/mL; in [2], 0.05 µg/mL.

B2: Enoblituzumab (antibody, human IgG1, kappa, V domains shown)
VH: EVQLVESGGGLVQPGGSLRLSCAASGFTFSSFGMHWVRQAPGKGLEWVAYISSDSSAIYYADTVKGRFTISRDNAKNSLYLQMNSLRDEDTAVYYCGRGRENIYYGSRLDYWGQGTTVTVSS
VL: DIQLTQSPSFLSASVGDRVTITCKASQNVDTNVAWYQQKPGKAPKALIYSASYRYSGVPSRFSGSGSGTDFTLTISSLQPEDFATYYCQQYNNYPFTFGQGTKLEIKR
In the case of B2, the EC50 (read off the curve) in assay [3] came to 0.2 µg/mL; in [4], 0.3 µg/mL; in assay [5], 0.3 µg/mL; in assay [6], 0.1 µg/mL.

B3: 6B5-Mut (antibody, human IgG1, kappa)
heavy: QVQLVESGPGLVKPSQTLSLTCTVSDGSISSGGYYWSWIRQHPGKGLEWIGYIYYSGGTYYSPSLKSRVTISVDTSKNQFSLKLTSVTAADTAVYYCARRAGYSSSFDSWGQGILVTVSSASTKGPSVFPLAPSSKSTSGGTAALGCLVKDYFPEPVTVSWNSGALTSGVHTFPAVLQSSGLYSLSSVVTVPSSSLGTQTYICNVNHKPSNTKVDKRVEPKSCDKTHTCPPCPAPELVGGPSVFLLPPKPKDTLMISRTPEVTCVVVDVSHEDPEVKFNWYVDGVEVHNAKTKPPEEQYNSTLRVVSVLTVLHQDWLNGKEYKCKVSNKALPAPIEKTISKAKGQPREPQVYTLPPSREEMTKNQVSLTCLVKGFYPSDIAVEWESNGQPENNYKTTPLVLDSDGSFFLYSKLTVDKSRWQQGNVFSCSVMHEALHNHYTQKSLSLSPGK
light: EIVLTQSPLSLPVTPGEPASISCRSSQSLLYSNGYTYLDWYLQKPGQSPQFLIYLGFNRASGVPDRFSGSGSGTDFTLKISRVEAEDVGVYYCMQGLQTPYTFGQGTKLEIKRTVAAPSVFIFPPSDEQLKSGTASVVCLLNNFYPREAKVQWKVDNALQSGNSQESVTEQDSKDSTYSLSSTLTLSKADYEKHKVYACEVTHQGLSSPVTKSFNRGEC
With B3, the EC50 (read off the curve) was found to be 0.4 µg/mL in assay [2] and 0.2 µg/mL in [7].

B4: 10D7 (antibody, human IgG1, kappa, V domains shown)
VH: QVQLVQSGPGLVKPSETLSLTCTVSGGSISRSSYYWGWIRQPPGKGLEWIGNIFYAGSTYYNPSLKSRVTISVDTSKNQFSLKLSSVTAADTAVYYCARRITGTTGWFDPWGQGTLVTVSS
VL: DIQLTQSPSSLSASVGDRVTITCRASQGIRNDLGWYQQKPGKAPKLLIYAASTLQSGVPSRFSGSGSGTDFTLTISSLQPEDFATYYCLQDYNYPRTFGQGTKVEIKR
As to B4, the EC50 (read off the curve) amounted to 0.03 µg/mL in assay [1]; 0.05 µg/mL in assay [2]; 0.06 µg/mL in assay [4]; 0.3 µg/mL in [5]; 0.7 µg/mL in [8]; 0.4 µg/mL in [9].

B5: 6B5 (antibody, human IgG1, kappa, V domains shown)
VH: QVQLVESGPGLVKPSQTLSLTCTVSDGSISSGGYYWSWIRQHPGKGLEWIGYIYYSGGTYYSPSLKSRVTISVDTSKNQFSLKLTSVTAADTAVYYCARRAGYSSSFDSWGQGILVTVSS
VL: EIVLTQSPLSLPVTPGEPASISCRSSQSLLYSNGYTYLDWYLQKPGQSPQFLIYLGFNRASGVPDRFSGSGSGTDFTLKISRVEAEDVGVYYCMQGLQTPYTFGQGTKLEIKR
For B5, the EC50 (read off the curve) in assay [2] turned out to be 0.4 µg/mL; in assay [3] it was 0.4 µg/mL; in assay [10], 2 µg/mL; in assay [4], 1 µg/mL; in assay [7] it was 0.1 µg/mL; in assay [5], 0.3 µg/mL. The EC50 (read off the curve) was 0.4 µg/mL in assay [11], 0.7 µg/mL in assay [8], 0.3 µg/mL in [6] and 0.6 µg/mL in assay [9].
